Legend:
[1] = system: rat neural stem cells from the adult lateral ventricle wall; assay: Expansion of rat neural stem cell cultures, total cell counts at 7 days; assay type: cell-based; conditions: different concentrations, 7 days; FIG. 24, FIG. 25
Procedure: Neural stem cells were prepared according to the attached protocol. Cells were grown in serum-free medium, subcloned and used between passage 6 and 10. If not otherwise mentioned the experiments consisted of triplets for analysis and were independently repeated at least 3 times.
Basal Medium: Neurobasal medium (NB, Gibco BRL) & B27 supplement (Gibco BRL).
Growth Medium: NB, B27 supplement+20 ng/ml of FGF-2 (R&D Systems)+20 ng/ml EGF (R&D Systems)+2 μg/ml heparin (Sigma, Germany).
Cells were plated in Growth medium at 10.000 cells/ml and after 2 days switched to the experimental condition. Cells were kept under the experimental condition for 7 days.
Adult female Fischer-344 rats (3-4 months; Charles River, Germany) were killed via cervical dislocation, the brains of each rat were removed and stored at 4° C. in DPBS (PAN, Germany) with 4.5 g/L glucose (Merck, Germany) (DPBS/glu). Overlying meninges and blood vessels were removed. Ependymal zone including subependymal/subventricular zone form the lateral wall of the lateral ventricle were aseptically removed. […] Live cells were counted by trypan blue exclusion assay in a hemocytometer. […]
The culture medium containing floating neurospheres was collected in a 15 ml centrifuge tube and centrifuged at 800 rpm. […] An aliquot was counted by trypan blue exclusion assay in a hemocytometer to determine the amount of live and dead cells. […]

6-OHDA Lesioned Rats = assay: i.c.v. infusion in 6-OHDA lesioned rats, BrdU / NeuN labelling; assay type: in vivo, rat; conditions: for numbers of BrdU labelled cells in the denervated striatum: compared to PBS infusion
Procedure: Animal handling and surgical procedures were carried out according to the ethical and regulatory permits set forth by Jordbruksverket and Lund University. Adult female Sprague-Dawley rats (B&K Universal AB) rats weighing 220-250 g, were housed in pairs with a 12 h light-dark cycle with free access to food and water. To lesion the substantia nigra, rats were fixed into a stereotaxic frame and 6-OHDA ([…] in 0.02% ascorbate saline, Sigma) was injected at a rate of 1 μl/min in 2 deposits of 2 and 2.5 μl into the right ascending mesostriatal forebrain bundle at the following coordinates: 4.4 mm caudal to bregma, 1.2 mm lateral to midline, 7.8 mm below dura; 4.0 mm caudal, 0.8 mm lateral, 8.0 mm below dura, respectively (Paxinos and Watson, 1998). Three weeks after 6-OHDA injections, the completeness of the lesion was assessed with the amphetamine-induced rotation test. D-methylamphetamine (2.5 mg, i.p.) was injected 5 min prior to placing the rat in an automated rotormeter bowl that measured the number of rotations over 90 min.
Before implantation, an Alzet Model 2002 osmotic minipump (200 μl; flow rate: 0.5 μl/h, 12 μl/day) was prefilled with 200 μl of compound solution (see below) and placed in a NaCl (0.9%) solution warmed in water bath (37° C.) 36 hrs before implantation. Rats were anesthetized with halothane in a mixture of nitrous oxide/oxygen (70:30) and maintained with 2-3% halothane. For implantation, rats were placed in a stereotaxic frame and the cannula of the Alzet Brain Infusion kit II was placed into the right lateral ventricle (coordinates: AP=−0.3 mm posterior bregma, L=1.5 mm lateral to satura sagittalis, 4.5 mm the dura; Paxinos and Watson, 1998), and secured to the skull with screws and dental cement. The minipump was then placed subcutaneously in the mid-scapular region. The scalp was treated with lidocaine gel before suturing. Twelve days after insertion, the rats were briefly anaesthetized with halothane in order to remove the pump. Removed pumps had the remaining solution volume and weight recorded.
The effects of infused PDGF-BB and BDNF following 6-OHDA lesions were investigated at 2 different time points: at 12 days or 5 weeks after minipump insertion. Rats receiving human PDGF-BB (order # 220-BB-050; 50 μg, R&D Systems) each had 36 ng/d of PDGF dissolved in 0.1 M PBS (3 μg/ml). Rats receiving human recombinant BDNF (order # 248-BD-025; 25 μg, R&D Systems) each had 12 ng/d of BDNF dissolved in 0.1 M PBS (1 μg/ml). BrdU was co-administered with the compound solution in the minipumps by dissolving it into the 0.1 M PBS medium. Control rats received only BrdU/PBS infusions.
Brain tissue was obtained by anesthetizing the rat and transcardially perfusing with 0.9% saline followed by 4% paraformaldehyde (PFA). Brains were stored PFA for 2 hours, then transferred to 20% sucrose PBS and sectioned coronally on a sledge microtome at 30 μm thickness. Free-floating sections were stored in Walter's antifreeze solution at 4° C. until staining.
Following blocking, incubation of monoclonal rat anti-BrdU antibody (Harlan Sera Lab, UK) in 2% blocking solution occurred at a dilution of 1:100 at 4° C. for 36 hrs. The sections were then incubated with biotin-horse-[…] antibody (1:200) (Vector, CA) in 2% blocking solution for 2 hr and visualized with DAB-NiCl Vectastain Elite kit. The procedure for doubling labeling of BrdU with NeuN or TH was similar, except that a monoclonal rat anti-BrdU antibody (1:100; Sigma, Sweden) was incubated either with a monoclonal mouse anti-NeuN antibody (1:100; Chemicon, USA) or with a monoclonal anti-TH antibody (1:1000; Pelfreeze) in the appropriate 2% blocking solution in the dark for 36 to 48 hrs. For immunofluorescent visualization, sections were incubation in secondary antibodies: Cy3-conjugated donkey anti-rat (1:200; Jackson ImmunoResearch, PA) for BrdU; a biotinylated horse anti-mouse antibody (1:200; BA2001, Vector, CA) for NeuN; and a FITC-conjugated goat anti-rat (1:200;) for TH. […]

Healthy Rats = assay: ICV infusion in healthy rats, BrdU / NeuN labelling; assay type: in vivo, rat
Procedure: Male rats (12 hours light/dark regime; feeding and drinking ad libitum; 5 animals in standard cage) were infused (Alzet minipumps) in the left lateral ventricle with human recombinant PDGF-BB for 7 days at a daily dose of 36 ng/day (8 animals/group). Human recombinant BDNF (brain derived neurotrophic factor) was used as a positive control (Pencea V et al., J. Neurosci Sep. 1 (2001), 21(17):6706-17). Bromodeoxyuridine (BrdU) was also included in the infusion vehicle (artificial cerebrospinal fluid) to enable measurement of proliferation by quantitation of BrdU incorporation in the DNA. Animals were sacrificed at 7 (proliferation) or 28 days (neurogenesis) after start of treatment and brains were dissected and prepared for sectioning and immunohistochemistry (Pencea V et al., J. Neurosci Sep. 1 (2001), 21(17):6706-17).
Proliferation was measured by BrdU incorporation and diaminobenzidine (DAB) staining of HRP conjugated secondary antibodies (FIG. 7). Cells were counted in a phase contrast microscope. Neural phenotype was assessed by staining for neuronal marker NeuN by immunocytochemistry using a fluorescence readout. The secondary antibodies were labeled with FITC or Alexa Fluor568. In double staining analyses designed to measure neurogenesis, BrdU and NeuN were quantitated by fluorescence (above) and counting of cells was done in a confocal microscope. For further experimental details, see Pencea V et al., J. Neurosci Sep. 1 (2001), 21(17):6706-17. A number of brain regions were analysed.

Molecule	stimulation of proliferation of neural stem cell cultures [1]	absolute number of BrdU/NeuN double labelled cells in the striatum (6-OHDA Lesioned Rats; 5 weeks, FIG. 15)	numbers of BrdU labelled cells in the denervated striatum (6-OHDA Lesioned Rats; 12 days after infusion, PDGF 36 ng/d, BDNF 12 ng/d)	numbers of BrdU labelled cells in the lesioned substantia nigra (6-OHDA Lesioned Rats; 12 days after infusion, compared to PBS treatment)	BrdU cells in the striatum co-labelled with NeuN (proportion of newly generated neurons) (6-OHDA Lesioned Rats; Week 5, no statistically significant differences)	numbers of BrdU labelled cells in the denervated striatum (6-OHDA Lesioned Rats; at 5 weeks)	Cell count (BrdU, proliferation) along the lateral ventricle wall (Healthy Rats; 7-day group, ICV infusion 7 days, 36 ng/day, mean of two sections, mean +/- sem)	number of proliferating cells in the subventricular zone (Healthy Rats; 28-day group)	neurogenesis in the striatum (Healthy Rats; 28-day group, in comparison to vehicle treated animals)	BrdU positive cells in the dentate gyrus, the CA1 and the alveus (Healthy Rats; 28-day group, in comparison to vehicle-treated animals)	BrdU positive cells in the striatum (Healthy Rats; 28-day group, cells counted in 300 × 300 μm squares)
VEGF-A121: VEGF isoform that can only bind to the Flk-1 receptor (protein) APMAEGGGQNHHEVVKFMDVYQRSYCHPIETLVDIFQEYPDEIEYIFKPSCVPLMRCGGCCNDEGLECVPTEESNITMQIMRIKPHQGQHIGEMSFLQHNKCECRPKKDRARQEKCDKPRR	significant stimulation	–	–	–	–	–	–	–	–	–	–
VEGF-A165: VEGF isoform that can bind to flk-1, flt-1 and neuropilin-1 (protein) APMAEGGGQNHHEVVKFMDVYQRSYCHPIETLVDIFQEYPDEIEYIFKPSCVPLMRCGGCCNDEGLECVPTEESNITMQIMRIKPHQGQHIGEMSFLQHNKCECRPKKDRARQENPCGPCSERRKHLFVQDPQTCKCSCKNTDSRCKARQLELNERTCRCDKPRR	significant stimulation	–	–	–	–	–	–	–	–	–	–
BDNF: Human recombinant BDNF (brain derived neurotrophic factor), used as a positive control (protein, UniProt P23560 19-247, looked up) Neurotrophic factor BDNF …: APMKEANIRGQGGLAYPGVRTHGTLESVNGPKAGSRGLTSLADTFEHVIEELLDEDQKVRPNEENNKDADLYTSRVMLSSQVPLEPPLLFLLEEYKNYLDAANMSMRVRRHSDPARRGELSVCDSISEWVTAADKKTAVDMSGGTVTVLEKVPVSKGQLKQYFYETKCNPMGYTKEGCRGIDKRHWNSQCRTTQSYVRALTMDSKKRIGWRFIRIDTSCVCTLTIKRGR	–	significantly more neurons	significantly elevated	significantly elevated	16.6%	significant increases	177 +/−15	slight effect	significantly increase neurogenesis	no significant effect	39.8 ± 7.3 (p < 0.01 to vehicle, ANOVA)

Reference: US7981863B2, “Treatment of Parkinson's disease with PDGF” (Neuronova AB, priority 2001, dated 2011)
